By Km is commonly meant the substrate concentration at which the rate is half of its maximum.

Numbering of substitutions follows the chain as printed. Numbers in names are those of the source.

For data set [1], the system named is HeLa Tet3G cells. Description: Total NAD+/NADH ratio by HPLC. In kind it is cell-based, human. The conditions noted are these: doxycycline-inducible expression. Here is the method: One million HeLa Tet3G Luciferase, LbNOX or mitoLbNOX cells were seeded per a 10 cm plate in 10 ml of DMEM (DMEM (US Biological, D9800), 3.7 g/L NaHCO3, 10% dialyzed FBS (Life Technologies, 26400-044)). Twenty four hours and 1 hour before extraction, media was exchanged to 10 ml of DMEM without pyruvate (DMEM (US Biological, D9802), 15.9 mg/L phenol red, 3.7 g/L NaHCO3, 10% dialyzed FBS (Life Technologies, 26400-044)) with or without 300 ng/ml doxycycline. The media that was used 1 hour before extraction was preincubated overnight in tissue culture incubator without cells. Media was quickly aspirated, cells rinsed with 15 ml of ice-cold PBS, transferred to dry ice and 4 ml of dry ice cold solution of 80% methanol: 20% water (spiked with 5 μM Sodium L-Lactate-3,3,3-D3 and 0.2 μM Sodium [3-^13C]Pyruvate) was added and quickly spread around by tilting the plate. The whole procedure from aspiration of media to adding 80% methanol solution took about ˜15 seconds. The plate was transferred on dry ice to −80° C. freezer and incubated for 15 min. […]
Metabolites were analyzed by ion exchange chromatography using μBondapak NH2 300×3.9-mm column (Waters, WAT084040) attached to Agilent 1260 HPLC system. […] Absorbance was monitored at […] for NADH. […] Energy charge calculated ([ATP]+0.5 [ADP])/([ATP]+[ADP]+[AMP]) was usually ˜0.95.

Data set [2] relates to primary rat hepatocytes. The experiment in a line: Gluconeogenesis in primary hepatocytes (adenoviral transduction). In kind it is cell-based. The conditions noted are these: adenovirus transduction, 5 mM lactate, glucose measured after 6 hours. From the text:
Two custom adenoviruses (Adenovirus Type 5 (dE1/E3)) were produced by Vector Biolabs. The same LbNOX and mitoLbNOX nucleotide sequences were used as in the lentiviral pLVX-TRE3G constructs. Adenoviral constructs encode for expression of either LbNOX or mitoLbNOX and eGFP, each gene driven by its own CMV promoter. Adenovirus with eGFP driven by the CMV promoter was used as a control (Vector Biolabs, 1060-HT).
Primary hepatocytes were obtained from the MGH Cell Resource Core, where they were freshly isolated by collagenase perfusion of livers from 24-hour fasted Sprague-Dawley rats and plated onto 24-well collagen-coated plates. Twenty four thousand cells were plated and cultured overnight in isolation media (DMEM with high glucose and pyruvate (Life Technologies, 11995)) supplemented with 20 ng/mL epidermal growth factor, 14.3 μg/mL glucagon, insulin, 7.5 μg/mL hydrocortisone, 10% FBS, 1% Penicillin-streptomycin). Cells were then transduced with the indicated adenoviral vector (MOI 20) and were serum starved by incubating in DMEM without additional supplementation overnight. […] Media was sampled 6 hours later and glucose was measured using the AMPLEX® Red Glucose Assay (Life-Technologies) and normalized to total protein levels from hepatocytes lysed in 1% SDS as measured by the BCA assay. […]

A short description of data set [3]: Enzymatic assay of NAD(P)H oxidase activity, NADPH as substrate (Michaelis-Menten analysis). Format: biochemical. Here is the method: TPNOX is highly specific towards NADPH (e.g., approximately 1120 fold more reactive with NADPH than with NADH based on respective kat/KM values).
Recombinant LbNOX activity was monitored by following the decrease of the absorbance of NAD(P)H at […] using CARY® 100 spectrophotometer (Agilent, CA). A typical reaction mixture contained 2 μM FAD in 0.5 ml of the assay buffer (50 mM Na2HPO4, pH 7.5, 150 mM NaCl) and was incubated for 4 min at 37° C. before NAD(P)H (2-600 μM) and enzyme (0.08-6.8 μg) were added. Extinction coefficient (ε340=6.2 mM^−1 cm^−1) was used to calculate NAD(P)H oxidase activity. Simultaneous monitoring of oxygen consumption and NADH fluorescence was performed using a custom-built fluorimeter. In our setup the REDEYE™ oxygen patch (OceanOptics) was installed in a cuvette and the optical probe was connected to a fluorimeter. Oxygen causes quenching of the REDEYE™ patch fluorescence which allows to monitor the partial pressure of oxygen. In our experiments 0.5 ml of the assay buffer was preincubated at 28° C. before NADH (40-1500 μM) and LbNOX (0.1-2 μg) were added.

B1: LbNOX: water-forming NADH oxidase endogenous to Lactobacillus brevis; tested with C-terminal FLAG tag (protein, listed as Lactobacillus brevis)
chain: KVTVVGCTHAGTFAIKQILAEHPDAEVTVYERNDVISFLSCGIALYLGGKVADPQGLFYSSPEELQKLGANVQMNHNVLAIDPDQKTVTVEDLTNHAQTTESYDKLVMTSGSWPIVPKIPGIDSDRVKLCKNWAHAQALIEDAKEAKRITVIGAGYIGAELAEAYSTTGHDVTLIDAMARVMPKYFDADFTDVIEQDYRDHGVQLALGETVESFTDSATGLTIKTDKNSYETDLAILCIGFRPNTDLLKGKVDMAPNGAIITDDYMRSSNPDIFAAGDSAAVHYNPTHQNAYIPLATNAVRQGILVGKNLVKPTVKYMGTQSSSGLALYDRTIVSTGLTLAAAKQQGLNAEQVIVEDNYRPEFMPSTEPVLMSLVFDPDTHRILGGALMSKYDVSQSANTLSVCIQNENTIDDLAMVDMLFQPNFDRPFNYLNILAQAAQAKVAQSVNA
modifications: C-terminal FLAG tag
In the case of B1, the “effect on total NAD+/NADH ratio” value in data set [1] was “did not have a significant effect”. The gluconeogenesis from lactate entry in data set [2] was “significantly increased”.

B2: TPNOX: NADPH-specific quintuple mutant (G159A/D177A/A178R/M179S/P184R) of LbNOX (protein)
chain: B1 chain with G158A, D176A, A177R, M178S, P183R
In the case of B2, the “kcat with NADPH” value in data set [3] worked out at 268 ± 4 s⁻¹. The Km in data set [3] (recombinant enzyme) was determined as 22 ± 2 µM.

Values taken from patent publication US11866736B2, “Protein prostheses for mitochondrial diseases or conditions” (The General Hospital Corporation, priority 2015, dated 2024).
